Assay [1] deals with T1, human soluble urokinase plasminogen activator receptor (suPAR) (human, UniProt Q03405 23-303, limits assumed).
T1 construct: Target antigen of the off-rate screen; also called hsuPAR; human suPAR
In words: off-rate (kdis) screen of scFv clones, biosensor (Octet).

Assay [2] addresses T2, cynomolgus soluble urokinase plasminogen activator receptor (suPAR) (cynomolgus, UniProt Q9GK78 23-303, limits assumed).
T2 construct: Target antigen of the off-rate screen; also called cynomolgus uPAR; cynomolgus suPAR
The description is as above.

The target of assay [3] is T3, human soluble urokinase plasminogen activator receptor (hsuPAR) (human, UniProt Q03405 23-303, limits assumed).
T3 construct: Target antigen of the off-rate screen; also called human suPAR; rhuPAR-His
T3 sequence (Q03405 23-303 limits assumed): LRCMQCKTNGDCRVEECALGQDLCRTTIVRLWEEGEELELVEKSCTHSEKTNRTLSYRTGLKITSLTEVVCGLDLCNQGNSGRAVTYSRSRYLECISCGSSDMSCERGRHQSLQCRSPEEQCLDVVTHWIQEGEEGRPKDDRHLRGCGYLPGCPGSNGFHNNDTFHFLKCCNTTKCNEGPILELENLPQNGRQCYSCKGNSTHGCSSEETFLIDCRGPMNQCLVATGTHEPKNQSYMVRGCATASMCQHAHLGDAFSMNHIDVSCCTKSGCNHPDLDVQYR
In words: BLI (Octet) off-rate screen of scFv clones. In general terms: BLI is a label-free optical method that tracks binding on a fibre tip over time.

For the next assay, the target named is T4, cynomolgus suPAR (cynomolgus, UniProt Q9GK78 23-303, limits assumed).
T4 construct: Target antigen of the off-rate screen; also called cynomolgus uPAR; cynoPLAUR-His
T4 sequence (Q9GK78 23-303 limits assumed): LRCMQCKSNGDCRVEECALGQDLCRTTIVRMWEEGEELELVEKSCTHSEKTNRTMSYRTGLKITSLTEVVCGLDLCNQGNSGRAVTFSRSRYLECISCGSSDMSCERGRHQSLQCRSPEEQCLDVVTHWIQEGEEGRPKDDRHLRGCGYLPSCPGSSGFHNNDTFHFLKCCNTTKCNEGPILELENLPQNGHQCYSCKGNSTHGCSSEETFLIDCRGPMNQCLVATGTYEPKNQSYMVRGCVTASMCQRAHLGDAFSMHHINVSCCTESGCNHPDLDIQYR
Kind of assay: BLI (Octet) off-rate screen of scFv clones.

T1 sequence (Q03405 23-303 limits assumed): as the sequence (Q03405 23-303 limits assumed) above
T2 sequence (Q9GK78 23-303 limits assumed): as the sequence (Q9GK78 23-303 limits assumed) above

B1: suPAR_DB01_E12 (scFv, V domains shown)
VH: QVQLVQSGAEVKKPGASVKVSCKASGGTFSSYAISWVRQAPGQGLEWLGVINPGGGGTNYAQKFQGRVTMTRDTSTSTVYMELSSLRSEDTAVYYCARGYDVDWFVTWGQGTLVTVSS
VL: DIQMTQSPSSLSASVGDRVTITCQASQDISNYINWYQQKPGKAPKLLIYDASNLASGVPSRFSGSGSGTDFTLTISSLQPEDFATYYCQQYHSYPPTFGGGTKVEIK
notes: screened as scFv
On to B1, for which the koff (in general, a measure of how fast the partners let go of each other) in assay [1] stood at 0.0117 s⁻¹; in assay [2], 0.0212 s⁻¹.

B2: suPAR_DB01_E08 (scFv, V domains shown)
VH: QVQLVQSGAEVKKPGASVKVSCKASGYTFTGYYIHWVRQAPGQGLEWMGWIDHENGSTIYDQKFQGRVTMTRDTSTSTVYMELSSLRSEDTAVYYCARGYDVDWFVYWGQGTLVTVSS
VL: DIQMTQSPSSLSASVGDRVTITCSARSSVSYMYWYQQKPGKAPKLLIYRTSNLASGVPSRFSGSGSGTDFTLTISSLQPEDFATYYCQQYHSYPPTFGGGTKVEIK
notes: screened as scFv
B2: the off-rate constant (koff) was found to be 0.000564 s⁻¹ in assay [1] and 5.85e-07 s⁻¹ in assay [2].

B3: suPAR_DB03_B03 (scFv, V domains shown)
VH: QVQLVQSGAEVKKPGASVKVSCKASGYTFTNYYMHWVRQAPGQGLEWMGWIDPENGSTIYDQKFQGRVTMTRDTSTSTVYMELSSLRSEDTAVYYCARGYDVDWFVYWGQGTLVTVSS
VL: DIQMTQSPSSLSASVGDRVTITCSARSSVSYMYWYQQKPGKAPKLLIYRTSNLASGVPSRFSGSGSGTDFTLTISSLQPEDFATYYCQQYHSYPPTFGGGTKVEIK
notes: screened as scFv
B3: the koff in assay [3] stood at 0.00347 s⁻¹; with cynomolgus suPAR it was 0.00026 s⁻¹.

B4: suPAR_DB02_H10 (scFv, V domains shown)
VH: QVQLVQSGAEVKKPGASVKVSCKASGYTFTSYYMHWVRQAPGQGLEWMGWIDHSNGNTIYDQKFQGRVTMTRDTSTSTVYMELSSLRSEDTAVYYCARGYDVDWFVYWGQGTLVTVSS
VL: DIQMTQSPSSLSASVGDRVTITCSARQSVSYMYWYQQKPGKAPKLLIYRTSNLASGVPSRFSGSGSGTDFTLTISSLQPEDFATYYCQQYHSYPPTFGGGTKVEIK
notes: screened as scFv
Consider B4, for which the values for the koff (in assay [3]; in the assay with cynomolgus suPAR) were 0.00344 s⁻¹ and 0.000189 s⁻¹, respectively.

B5: suPAR_DB02_H06 (scFv, V domains shown)
VH: QVQLVQSGAEVKKPGASVKVSCKASGFNIKDYYIHWVRQAPGQGLEWMGWIDPEGGNTIYAQKFQGRVTMTRDTSTSTVYMELSSLRSEDTAVYYCARGYDVDWFVYWGQGTLVTVSS
VL: DIQMTQSPSSLSASVGDRVTITCRARSSVSYMYWYQQKPGKAPKLLIYRTSNLASGVPSRFSGSGSGTDFTLTISSLQPEDFATYYCQQYHSYPPTFGGGTKVEIK
notes: screened as scFv
As for B5, the koff is 0.00305 s⁻¹ in assay [3] and 0.000393 s⁻¹ in the assay with cynomolgus suPAR.

B6: suPAR_DB03_A03 (scFv, V domains shown)
VH: QVQLVQSGAEVKKPGASVKVSCKASGYTFTGYYMHWVRQAPGQGLEWMGWIDHENGSTIYDQKFQGRVTMTRDTSTSTVYMELSSLRSEDTAVYYCAVGYDVDWFVYWGQGTLVTVSS
VL: DIQMTQSPSSLSASVGDRVTITCSARSSVSYMYWYQQKPGKAPKLLIYRTSNLASGVPSRFSGSGSGTDFTLTISSLQPEDFATYYCQQYHSYPPTFGGGTKVEIK
notes: screened as scFv
Consider B6, for which the values for the koff (in assay [3]; with cynomolgus suPAR) were 0.00199 s⁻¹ and 0.000319 s⁻¹, respectively.

B7: suPAR_DB02_H09 (scFv, V domains shown)
VH: QVQLVQSGAEVKKPGASVKVSCKASGYTFTSYYMHWVRQAPGQGLEWMGWIDPENGNTIYAQKFQGRVTMTRDTSTSTVYMELSSLRSEDTAVYYCARGYDVDWFVFWGQGTLVTVSS
VL: DIQMTQSPSSLSASVGDRVTITCSARSSVSYMYWYQQKPGKAPKLLIYATSNLQSGVPSRFSGSGSGTDFTLTISSLQPEDFATYYCQQYHSYPPTFGGGTKVEIK
notes: screened as scFv
Consider B7, for which the koff in assay [3] is 0.0338 s⁻¹; in the assay with cynomolgus suPAR, 0.00218 s⁻¹.

B8: suPAR_DB02_H08 (scFv, V domains shown)
VH: QVQLVQSGAEVKKPGASVKVSCKASGYTFTGYYIHWVRQAPGQGLEWMGWIDPENGSTIYDQKFQGRVTMTRDTSTSTVYMELSSLRSEDTAVYYCARGYDVDWFVYWGQGTLVTVSS
VL: DIQMTQSPSSLSASVGDRVTITCSARSSVSYMYWYQQKPGKAPKLLIYRTSNLASGVPSRFSGSGSGTDFTLTISSLQPEDFATYYCQQYHSYPPTFGGGTKVEIK
notes: screened as scFv
Turning to B8, the koff was found to be 0.00485 s⁻¹ in assay [3] and 0.000228 s⁻¹ with cynomolgus suPAR.

B9: suPAR_DB01_E09 (scFv, V domains shown)
VH: QVQLVQSGAEVKKPGASVKVSCKASGYTFTSYYMHWVRQAPGQGLEWMGWIDHENGNTIYDQKFQGRVTMTRDTSTSTVYMELSSLRSEDTAVYYCARGYDVDWFVYWGQGTLVTVSS
VL: DIQMTQSPSSLSASVGDRVTITCSARSSISYMYWYQQKPGKAPKLLIYRTSNLQSGVPSRFSGSGSGTDFTLTISSLQPEDFATYYCQQYHSYPPTFGGGTKVEIK
notes: screened as scFv
In the case of B9, the results for the koff in assay [1] and in assay [2] were 0.00446 s⁻¹ and 0.000246 s⁻¹, respectively.

B10: suPAR_DB01_E10 (scFv, V domains shown)
VH: QVQLVQSGAEVKKPGASVKVSCKASGYTFTGYYMHWVRQAPGQGLEWMGWIDHENGSTSYDQKFQGRVTMTRDTSTSTVYMELSSLRSEDTAVYYCARGYDVDWFVYWGQGTLVTVSS
VL: DIQMTQSPSSLSASVGDRVTITCRARQSVSYMYWYQQKPGKAPKLLIYRTSNLASGVPSRFSGSGSGTDFTLTISSLQPEDFATYYCQQYHSYPPTFGGGTKVEIK
notes: screened as scFv
Turning to B10, the figures for the koff in assay [1] and in assay [2] were 0.00162 s⁻¹ and 0.000104 s⁻¹, respectively.

B11: suPAR_DB02_H07 (scFv, V domains shown)
VH: QVQLVQSGAEVKKPGASVKVSCKASGYTFTSYYVHWVRQAPGQGLEWMGWVDPSSGATDYAQKFQGRVTMTRDTSTSTVYMELSSLRSEDTAVYYCARGYDVDWFVYWGQGTLVTVSS
VL: DIQMTQSPSSLSASVGDRVTITCSARSSVSYMYWYQQKPGKAPKLLIYRTSNLASGVPSRFSGSGSGTDFTLTISSLQPEDFATYYCQQYHSYPPTFGGGTKVEIK
notes: screened as scFv
As to B11, the koff in assay [3] was determined as 0.00317 s⁻¹; with cynomolgus suPAR it was 0.00146 s⁻¹.

B12: suPAR_DB03_A05 (scFv, V domains shown)
VH: QVQLVQSGAEVKKPGASVKVSCKASGYTFSSYYMHWVRQAPGQGLEWMGWIDHENGNTIYAQKFQGRVTMTRDTSTSTVYMELSSLRSEDTAVYYCARGYDVDWFVYWGQGTLVTVSS
VL: DIQMTQSPSSLSASVGDRVTITCSARSSVSYMYWYQQKPGKAPKLLIYRTSSLASGVPSRFSGSGSGTDFTLTISSLQPEDFATYYCQQYHSYPPTFGGGTKVEIK
notes: screened as scFv
On to B12, for which the koff in assay [3] amounted to 0.0026 s⁻¹; with cynomolgus suPAR it was 0.000259 s⁻¹.

B13: suPAR_DB01_F01 (scFv, V domains shown)
VH: QVQLVQSGAEVKKPGASVKVSCKASGYTFTSYYVHWVRQAPGQGLEWMGWIDHENGSTIYAQKFQGRVTMTRDTSTSTVYMELSSLRSEDTAVYYCARGYDVDWFVYWGQGTLVTVSS
VL: DIQMTQSPSSLSASVGDRVTITCSARSSVSYMYWYQQKPGKAPKLLIYRTSNLASGVPSRFSGSGSGTDFTLTISSLQPEDFATYYCQQYHSYPPTFGGGTKVEIK
notes: screened as scFv
In the case of B13, the koff in assay [1] stood at 0.000618 s⁻¹; in assay [2] it was 0.000203 s⁻¹.

B14: suPAR_DB01_E11 (scFv, V domains shown)
VH: QVQLVQSGAEVKKPGASVKVSCKASGYTFTNYYMHWVRQAPGQGLEWMGWIDHENGSTIYAQKFQGRVTMTRDTSTSTVYMELSSLRSEDTAVYYCARGYDVDWFVYWGQGTLVTVSS
VL: DIQMTQSPSSLSASVGDRVTITCSARSSVSYMYWYQQKPGKAPKLLIYRTSNLASGVPSRFSGSGSGTDFTLTISSLQPEDFATYYCQQYHSYPPTFGGGTKVEIK
notes: screened as scFv
As for B14, the results for the koff in assay [1] and in assay [2] were 0.000638 s⁻¹ and 0.000369 s⁻¹, respectively.

Values taken from patent US20250215104A1 (WALDEN BIOSCIENCES, published 2025).
